Some results are limits rather than exact numbers.

Assay [1] concerns the target binary complex of FGFR1c ligand-binding domain with murine αKlotho ectodomain (murine;human) (UniProt O35082). Put plainly: SPR. In general terms: Surface plasmon resonance follows binding to a sensor surface in real time, without labels.
Assay [2] addresses T1, ligand-binding domain of human FGFR1c (D142 to R365) (human, UniProt P11362 142-365).
T1 chain: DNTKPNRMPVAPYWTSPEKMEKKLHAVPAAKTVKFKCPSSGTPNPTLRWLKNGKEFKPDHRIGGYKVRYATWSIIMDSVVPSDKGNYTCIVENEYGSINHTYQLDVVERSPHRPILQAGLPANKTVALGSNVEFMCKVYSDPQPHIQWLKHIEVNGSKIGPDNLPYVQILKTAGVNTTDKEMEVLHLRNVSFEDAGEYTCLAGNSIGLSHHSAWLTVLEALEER
Put plainly: SPR.

The target in assay [3] is T2, ligand-binding domain of human FGFR1c (D142 to R365) (human, UniProt P11362 142-365).
T2 construct: range 142-365
T2 sequence (looked up): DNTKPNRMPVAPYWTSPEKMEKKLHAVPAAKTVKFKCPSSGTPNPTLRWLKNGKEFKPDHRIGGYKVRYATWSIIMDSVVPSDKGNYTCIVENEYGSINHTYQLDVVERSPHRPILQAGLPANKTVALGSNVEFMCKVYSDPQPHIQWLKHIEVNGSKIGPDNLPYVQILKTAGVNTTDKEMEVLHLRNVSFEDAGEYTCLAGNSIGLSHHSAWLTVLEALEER
Put plainly: SPR; increasing concentrations of FGFR1c ligand-binding domain passed over immobilised FGF23. The text has this:
(§1) FIGS. 10A-10D show overlays of SPR sensorgrams illustrating binding of FGFR1c to FGF2 (FIG. 10A), FGF19 (FIG. 10B), FGF21 (FIG. 10C), and FGF23 (FIG. 10D), and fitted saturation binding curves. Increasing concentrations of FGFR1c ligand-binding domain were passed over a biosensor chip containing immobilized FGF2, FGF19, FGF21, or FGF23. […] Increasing concentrations of αKlotho-FGFR1c complex were passed over a biosensor chip containing immobilized FGF23. […] FGF23^C-tail was immobilized on a biosensor chip and increasing concentrations of FGFR1c ligand-binding domain were passed over the chip. Dissociation constants (KDs) given in FIGS. 10A-10E were derived from the saturation binding curves.
(§2) Surface plasmon resonance (SPR) experiments were performed on a Biacore 2000 instrument (Biacore AB), and the interactions were studied at 25° C. in HBS-EP buffer (10 mM HEPES-NaOH, pH 7.4, 150 mM NaCl, 3 mM EDTA, 0.005% (v/v) polysorbate 20). To study endocrine FGF-heparin interactions, a heparin chip was prepared by immobilizing biotinylated heparin (Sigma-Aldrich) on flow channels of a research-grade streptavidin chip (Biacore AB). The coupling density was ˜5 fmol mm⁻² of flow channel. To measure binding of chimeric FGF2 proteins to heparin, biotinylated heparin was coupled to a streptavidin chip at an approximately 4-fold lower density as judged based on the binding responses obtained for FGF1. […]

Assay [4] addresses T3, binary complex of FGFR1c ligand-binding domain with murine αKlotho ectodomain (murine; human, UniProt O35082 35-982; P11362 142-365).
T3 construct: range 35-982;range 142-365; αKlotho ectodomain was expressed in HEK293 cells; also called αKlotho-FGFR1c complex; αKlotho-FGFR1c; not shown: C-terminal FLAG tag
T3 sequence (looked up) 1: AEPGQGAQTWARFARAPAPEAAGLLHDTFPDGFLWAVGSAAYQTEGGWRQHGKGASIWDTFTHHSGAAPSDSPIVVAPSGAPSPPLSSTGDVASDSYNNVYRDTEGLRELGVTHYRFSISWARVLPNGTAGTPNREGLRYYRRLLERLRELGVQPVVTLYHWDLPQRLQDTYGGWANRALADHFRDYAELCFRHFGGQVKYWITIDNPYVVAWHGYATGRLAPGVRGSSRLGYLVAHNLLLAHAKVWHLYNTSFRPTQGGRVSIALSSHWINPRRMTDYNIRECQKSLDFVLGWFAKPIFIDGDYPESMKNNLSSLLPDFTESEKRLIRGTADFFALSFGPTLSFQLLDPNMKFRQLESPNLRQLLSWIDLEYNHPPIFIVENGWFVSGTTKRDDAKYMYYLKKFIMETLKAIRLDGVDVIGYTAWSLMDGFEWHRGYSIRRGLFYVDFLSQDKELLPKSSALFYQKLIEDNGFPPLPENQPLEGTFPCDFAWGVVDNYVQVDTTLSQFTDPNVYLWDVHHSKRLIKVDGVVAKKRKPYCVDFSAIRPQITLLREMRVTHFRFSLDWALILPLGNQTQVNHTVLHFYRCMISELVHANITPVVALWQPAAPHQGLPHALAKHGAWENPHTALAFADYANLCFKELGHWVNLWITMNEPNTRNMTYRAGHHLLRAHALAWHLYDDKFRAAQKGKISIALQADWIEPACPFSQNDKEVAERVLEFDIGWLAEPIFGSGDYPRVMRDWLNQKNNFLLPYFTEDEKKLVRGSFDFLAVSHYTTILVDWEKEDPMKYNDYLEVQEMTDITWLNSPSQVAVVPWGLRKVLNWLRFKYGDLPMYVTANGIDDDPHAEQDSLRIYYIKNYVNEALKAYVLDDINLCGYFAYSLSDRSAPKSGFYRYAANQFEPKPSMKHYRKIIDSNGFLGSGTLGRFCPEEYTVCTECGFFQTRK
T3 sequence (looked up) 2: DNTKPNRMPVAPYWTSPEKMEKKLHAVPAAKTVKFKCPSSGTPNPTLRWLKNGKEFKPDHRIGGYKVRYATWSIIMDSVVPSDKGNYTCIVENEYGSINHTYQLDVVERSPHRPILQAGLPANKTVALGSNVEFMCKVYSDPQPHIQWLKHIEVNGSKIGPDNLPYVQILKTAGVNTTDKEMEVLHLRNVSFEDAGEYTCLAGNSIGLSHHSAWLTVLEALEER
Put plainly: SPR; FGFR1c ligand-binding domain or αKlotho-FGFR1c complex passed over immobilised FGF23 (FIGS. 10D and 10E).
Source text: as §1, §2

Assay [5] concerns the target T2, ligand-binding domain of human FGFR1c …. Kind of assay: SPR; increasing concentrations of FGFR1c ligand-binding domain passed over immobilised FGF21.
Source text: as §1, §2

For assay [6], the target named is T4, binary complex of FGFR1c ligand-binding domain with murine βKlotho ectodomain (murine; human, UniProt P11362 142-365).
T4 construct: range 142-365; also called βKlotho-FGFR1c complex; βKlotho-FGFR1c; not shown: C-terminal FLAG tag
T4 sequence 1: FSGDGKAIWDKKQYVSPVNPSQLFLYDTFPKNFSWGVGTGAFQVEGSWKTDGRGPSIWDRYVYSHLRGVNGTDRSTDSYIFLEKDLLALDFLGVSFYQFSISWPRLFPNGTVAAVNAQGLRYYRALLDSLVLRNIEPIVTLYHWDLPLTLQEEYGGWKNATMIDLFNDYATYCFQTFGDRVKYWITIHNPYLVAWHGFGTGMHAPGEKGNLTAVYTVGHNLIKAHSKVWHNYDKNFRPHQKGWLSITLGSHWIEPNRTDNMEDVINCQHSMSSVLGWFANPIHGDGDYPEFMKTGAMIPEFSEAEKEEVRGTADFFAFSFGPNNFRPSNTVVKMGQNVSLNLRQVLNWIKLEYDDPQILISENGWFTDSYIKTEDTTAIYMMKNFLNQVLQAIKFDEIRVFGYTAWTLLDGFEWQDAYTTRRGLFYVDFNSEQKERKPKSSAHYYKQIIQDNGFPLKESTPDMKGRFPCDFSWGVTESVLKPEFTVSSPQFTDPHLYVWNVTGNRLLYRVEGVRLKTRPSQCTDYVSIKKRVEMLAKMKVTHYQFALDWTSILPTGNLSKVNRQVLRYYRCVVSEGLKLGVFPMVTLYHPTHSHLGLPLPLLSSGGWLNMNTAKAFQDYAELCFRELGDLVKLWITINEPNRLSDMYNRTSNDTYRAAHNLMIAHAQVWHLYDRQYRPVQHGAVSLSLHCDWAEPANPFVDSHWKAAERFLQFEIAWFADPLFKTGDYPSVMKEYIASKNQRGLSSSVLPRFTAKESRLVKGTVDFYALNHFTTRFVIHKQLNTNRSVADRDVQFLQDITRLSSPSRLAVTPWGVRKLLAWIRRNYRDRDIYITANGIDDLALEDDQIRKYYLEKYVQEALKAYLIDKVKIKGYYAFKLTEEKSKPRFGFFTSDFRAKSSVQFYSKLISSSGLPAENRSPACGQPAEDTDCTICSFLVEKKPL
T4 sequence 2: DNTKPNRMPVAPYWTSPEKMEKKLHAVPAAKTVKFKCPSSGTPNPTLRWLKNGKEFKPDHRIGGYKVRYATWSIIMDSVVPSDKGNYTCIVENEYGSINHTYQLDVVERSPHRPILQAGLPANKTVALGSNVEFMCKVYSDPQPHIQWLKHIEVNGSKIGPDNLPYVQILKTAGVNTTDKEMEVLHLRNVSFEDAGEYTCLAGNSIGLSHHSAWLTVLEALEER
Kind of assay: SPR competition; FGF21 in solution mixed with βKlotho-FGFR1c complex, passed over immobilised FGF21. The text has this:
To this end, a SPR-based binding competition assay was employed. FGF23 was immobilized onto a SPR biosensor chip, and mixtures of a fixed concentration of binary αKlotho-FGFR1c complex with increasing concentrations of FGF2^ΔHBScore-FGF23^C-tail chimera were passed over the chip. […] To test whether the FGF2^ΔHBScore-FGF21^C-tail chimera can likewise form a ternary complex with FGFR1c and βKlotho, FGF21 was coupled to a SPR biosensor chip, and mixtures of the binary βKlotho-FGFR1c complex with FGF2^ΔHBScore-FGF21^C-tail were passed over the chip. […] To further confirm the binding specificity of the FGF2^ΔHBScore-FGF23^C-tail chimera for the αKlotho-FGFR1c complex, FGF2^ΔHBScore-FGF23^C-tail and βKlotho-FGFR1c complex were mixed at a molar ratio of 10:1, and the mixture was injected over a chip containing immobilized FGF21. […] For the FGF2^ΔHBScore-FGF21^C-tail chimera, we investigated whether it is able to activate FGFR1c in a βKlotho-dependent fashion in cells. HEK293 cells were transfected with βKlotho and then stimulated with FGF2^ΔHBScore-FGF21^C-tail or FGF21.

Assay [7] deals with T2, ligand-binding domain of human FGFR1c …. Kind of assay: SPR; FGF23^C-tail immobilised on the chip, increasing concentrations of FGFR1c ligand-binding domain passed over it.
Source text: as §1, §2

Consider “human FGF23 (Y25 to I251), N-terminally hexahistidine-tagged mature form, with R176Q/R179Q (from UniProt Q9GZV9 25-251)”, for which the Kd in assay [1] turned out to be 27.4 nM.

B1: human FGF23 (Y25 to I251), N-terminally hexahistidine-tagged mature form, with R176Q/R179Q (ligand)
chain: YPNASPLLGSSWGGLIHLYTATARNSYHLQIHKNGHVDGAPHQTIYSALMIRSEDAGFVVITGVMSRRYLCMDFRGNIFGSHYFDPENCRFQHQTLENGYDVYHSPQYHFLVSLGRAKRAFLPGMNPPPYSQFLSRRNEIPLIHFNTPIPRQHTQSAEDDSERDPLNVLKPRARMTPAPASCSQELPSAEDNSPMASDPLGVVRGGRVNTHAGGTGPEGCRPFAKFI
notes: also called native FGF23; wild-type FGF23; not shown: N-terminal hexahistidine tag
In assay [2], B1 returned a Kd of 648 nM. In assay [3], the binding result is recorded as “binds”. In assay [4], the “fold enhancement of affinity (αKlotho-FGFR1c complex against FGFR1c alone)” value is more than 20 fold.

B2: human FGF21 (H29 to S209), N-terminally hexahistidine-tagged mature form (ligand)
chain: HPIPDSSPLLQFGGQVRQRYLYTDDAQQTEAHLEIREDGTVGGAADQSPESLLQLKALKPGVIQILGVKTSRFLCQRPDGALYGSLHFDPEACSFRELLLEDGYNVYQSEAHGLPLHLPGNKSPHRDPAPRGPARFLPLPGLPPALPEPPGILAPQPPDVGSSDPLSMVGPSQGRSPSYAS
notes: also called native FGF21; not shown: N-terminal hexahistidine tag
In the case of B2, the affinity in assay [2], expressed as Kd, was 2520 nM. Besides, the binding result in assay [5] and in assay [6] was “binds” each time.

B3: N-terminally hexahistidine-tagged C-terminal tail peptide of FGF23 (S180 to I251) (peptide)
peptide: SAEDDSERDPLNVLKPRARMTPAPASCSQELPSAEDNSPMASDPLGVVRGGRVNTHAGGTGPEGCRPFAKFI
notes: also called FGF23^C-tail; not shown: N-terminal hexahistidine tag
Take B3: the binding result in assay [7] is “no binding”.

As usually defined, the Kd is the concentration at which binding is half-saturated.

The record behind these values is patent publication US20130331317A1 (NEW YORK UNIVERSITY, published 2013).
